Laboratory results: article PMC4996978 (2016)

Columns and labels:
AtUBC8 [1] = target: T1, AtUBC8 (Arabidopsis thaliana, UniProt P35131 1-148); experiment: ITC
AtUBC8 [2] = target: T1, AtUBC8; experiment: ITC; remark: listed apart in the source

T1 sequence (P35131 whole entry): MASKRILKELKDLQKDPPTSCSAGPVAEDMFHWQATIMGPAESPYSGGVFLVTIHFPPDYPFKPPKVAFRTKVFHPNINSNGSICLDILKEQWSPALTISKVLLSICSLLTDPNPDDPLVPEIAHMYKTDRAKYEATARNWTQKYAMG

B1: AtMUB3 (natural protein)
chain: MPEEESIDIKFRLYDGSDIGPFRYSAASTVDFLKQRVVSDWPKGKTVVPKGINEVKLISSGKILENNKTVGQCKTPFGDIAGGVIVMHVVVQPSLAKSKTEKKVDKAPKAVICTCTIL
- Ka (AtUBC8 [1]): 3.53e+06 M⁻¹
- Kd (AtUBC8 [2]): 283 nM
